T1: PUF4 RNA-binding domain (Saccharomyces cerevisiae, UniProt P25339 537-888)
T1 sequence: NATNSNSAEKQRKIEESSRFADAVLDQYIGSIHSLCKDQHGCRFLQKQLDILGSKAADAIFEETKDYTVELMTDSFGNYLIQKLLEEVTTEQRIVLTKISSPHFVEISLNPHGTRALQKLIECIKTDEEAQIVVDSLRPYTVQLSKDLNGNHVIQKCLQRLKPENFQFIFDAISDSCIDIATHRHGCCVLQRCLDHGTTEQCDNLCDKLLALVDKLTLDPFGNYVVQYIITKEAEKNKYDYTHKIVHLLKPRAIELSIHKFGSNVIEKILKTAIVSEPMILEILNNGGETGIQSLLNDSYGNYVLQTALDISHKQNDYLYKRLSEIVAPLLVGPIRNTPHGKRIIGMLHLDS


molecular target: T1, PUF4 RNA-binding domain; test: Mg; RNA-MaP; 20 mM Na-HEPES pH 7.4, 30 mM KOAc, 0.75 mM MgCl2, 0.1% Tween-20, 5% glycerol, 0.1 mg/mL BSA, 2 mM DTT; 25 C; 0.0125-409.6 nM protein; conditions: tags: N-His6-TEV cleaved; C-SNAP kept, Cy3B-labelled; label: tethered on chip by stalled RNA polymerase

Row | Binder | Kd [nM]
1 | UCUCUUUGUAUAAUUCUCUU (ssRNA) [Ib_S1_P3E.1_K3.1_C3.1_H3.1_A3.1_F3.1_[T7A]_[A8T]_T3.1] | 9.97
2 | UCUCUUUGUAGUCUUUCUCUU (ssRNA) [Ic_S1_P4E.1_K4.1_C4.1_H4.1_A4.1_[T5G]_[A6T]_[T7C]_F4.1_[A9T]_T4.1] | 389
3 | UCUCUUUGUAGUCUAUCUCUU (ssRNA) [Ic_S1_P4E.1_K4.1_C4.1_H4.1_A4.1_[T5G]_[A6T]_[T7C]_F4.1_T4.1] | 21.1
4 | UCUCUUUGUAGCUUGUCUCUU (ssRNA) [Ic_S1_P4E.1_K4.1_C4.1_H4.1_A4.1_[T5G]_[A6C]_F4.1_[A9G]_T4.1] | 1590
5 | UCUCUUUGUAUAAGUCUCUU (ssRNA) [Ib_S1_P3E.1_K3.1_C3.1_H3.1_A3.1_F3.1_[T7A]_[A8G]_T3.1] | 502
6 | UCUCUUUGUAGUGUUUCUCUU (ssRNA) [Ic_S1_P4E.1_K4.1_C4.1_H4.1_A4.1_[T5G]_[A6T]_[T7G]_F4.1_[A9T]_T4.1] | 736
7 | UCUCUUUGUAGUAAUUCUCUU (ssRNA) [Ic_S1_P4E.1_K4.1_C4.1_H4.1_A4.1_[T5G]_[A6T]_[T7A]_F4.1_[T8A]_[A9T]_T4.1] | 1500
8 | UCUCUUUGUAGCUCUUCUCUU (ssRNA) [Ic_S1_P4E.1_K4.1_C4.1_H4.1_A4.1_[T5G]_[A6C]_F4.1_[T8C]_[A9T]_T4.1] | 2020
9 | UCUCUUUGUAGUUGUUCUCUU (ssRNA) [Ic_S1_P4E.1_K4.1_C4.1_H4.1_A4.1_[T5G]_[A6T]_F4.1_[T8G]_[A9T]_T4.1] | 802
10 | UCUCUUUGUAUACUUCUCUU (ssRNA) [Ic_S1_P3E.1_K3.1_C3.1_H3.1_A3.1_F3.1_[T7C]_[A8T]_T3.1] | 5.59
11 | UCUCUUUGUACGGUCUCUCUU (ssRNA) [Ic_S1_P4E.1_K4.1_C4.1_H4.1_A4.1_[T5C]_[A6G]_[T7G]_F4.1_[A9C]_T4.1] | 1490
12 | UCUCUUUGUAGCUGCUCUCUU (ssRNA) [Ic_S1_P4E.1_K4.1_C4.1_H4.1_A4.1_[T5G]_[A6C]_F4.1_[T8G]_[A9C]_T4.1] | 2070
13 | UCUCUUUGUAGUUCCUCUCUU (ssRNA) [Ic_S1_P4E.1_K4.1_C4.1_H4.1_A4.1_[T5G]_[A6T]_F4.1_[T8C]_[A9C]_T4.1] | 1260
14 | UCUCUUUGUAGUUUCUCUCUU (ssRNA) [Ic_S1_P4E.1_K4.1_C4.1_H4.1_A4.1_[T5G]_[A6T]_F4.1_[A9C]_T4.1] | 365
15 | UCUCUUUGUAGUAUAUCUCUU (ssRNA) [Ic_S1_P4E.1_K4.1_C4.1_H4.1_A4.1_[T5G]_[A6T]_[T7A]_F4.1_T4.1] | 11.2
16 | UCUCUUUGUACGGUUUCUCUU (ssRNA) [Ic_S1_P4E.1_K4.1_C4.1_H4.1_A4.1_[T5C]_[A6G]_[T7G]_F4.1_[A9T]_T4.1] | 360
17 | UCUCUUUGUAGUCCAUCUCUU (ssRNA) [Ic_S1_P4E.1_K4.1_C4.1_H4.1_A4.1_[T5G]_[A6T]_[T7C]_F4.1_[T8C]_T4.1] | 1510
18 | UCUCUUUGUAGUUACUCUCUU (ssRNA) [Ic_S1_P4E.1_K4.1_C4.1_H4.1_A4.1_[T5G]_[A6T]_F4.1_[T8A]_[A9C]_T4.1] | 982
19 | UCUCUUUGUAGUUCUUCUCUU (ssRNA) [Ic_S1_P4E.1_K4.1_C4.1_H4.1_A4.1_[T5G]_[A6T]_F4.1_[T8C]_[A9T]_T4.1] | 798
20 | UCUCUUUGUAGUAUGUCUCUU (ssRNA) [Ic_S1_P4E.1_K4.1_C4.1_H4.1_A4.1_[T5G]_[A6T]_[T7A]_F4.1_[A9G]_T4.1] | 278

Row | Binder | Kd [nM]
21 | UCUCUUUGUACGGCAUCUCUU (ssRNA) [Ic_S1_P4E.1_K4.1_C4.1_H4.1_A4.1_[T5C]_[A6G]_[T7G]_F4.1_[T8C]_T4.1] | 625
22 | UCUCUUUGUAGUAUUUCUCUU (ssRNA) [Ic_S1_P4E.1_K4.1_C4.1_H4.1_A4.1_[T5G]_[A6T]_[T7A]_F4.1_[A9T]_T4.1] | 297
23 | UCUCUUUGUACGGCCUCUCUU (ssRNA) [Ic_S1_P4E.1_K4.1_C4.1_H4.1_A4.1_[T5C]_[A6G]_[T7G]_F4.1_[T8C]_[A9C]_T4.1] | > 2300
24 | UCUCUUUGUAGCAUCUCUCUU (ssRNA) [Ic_S1_P4E.1_K4.1_C4.1_H4.1_A4.1_[T5G]_[A6C]_[T7A]_F4.1_[A9C]_T4.1] | 398
25 | UCUCUUUGUACGCCCUCUCUU (ssRNA) [Ic_S1_P4E.1_K4.1_C4.1_H4.1_A4.1_[T5C]_[A6G]_[T7C]_F4.1_[T8C]_[A9C]_T4.1] | 879
26 | UCUCUUUGUACGCCUUCUCUU (ssRNA) [Ic_S1_P4E.1_K4.1_C4.1_H4.1_A4.1_[T5C]_[A6G]_[T7C]_F4.1_[T8C]_[A9T]_T4.1] | 777
27 | UCUCUUUGUAGUUUUUCUCUU (ssRNA) [Ic_S1_P4E.1_K4.1_C4.1_H4.1_A4.1_[T5G]_[A6T]_F4.1_[A9T]_T4.1] | 118
28 | UCUCUUUGUAGUUUGUCUCUU (ssRNA) [Ic_S1_P4E.1_K4.1_C4.1_H4.1_A4.1_[T5G]_[A6T]_F4.1_[A9G]_T4.1] | 287
29 | UCUCUUUGUACGGCGUCUCUU (ssRNA) [Ic_S1_P4E.1_K4.1_C4.1_H4.1_A4.1_[T5C]_[A6G]_[T7G]_F4.1_[T8C]_[A9G]_T4.1] | > 2300
30 | UCUCUUUGUACGGUGUCUCUU (ssRNA) [Ic_S1_P4E.1_K4.1_C4.1_H4.1_A4.1_[T5C]_[A6G]_[T7G]_F4.1_[A9G]_T4.1] | 503
31 | UCUCUUUGUAGUCGCUCUCUU (ssRNA) [Ic_S1_P4E.1_K4.1_C4.1_H4.1_A4.1_[T5G]_[A6T]_[T7C]_F4.1_[T8G]_[A9C]_T4.1] | > 2300
32 | UCUCUUUGUACGCGCUCUCUU (ssRNA) [Ic_S1_P4E.1_K4.1_C4.1_H4.1_A4.1_[T5C]_[A6G]_[T7C]_F4.1_[T8G]_[A9C]_T4.1] | 1130
33 | UCUCUUUGUAGCUUUUCUCUU (ssRNA) [Ic_S1_P4E.1_K4.1_C4.1_H4.1_A4.1_[T5G]_[A6C]_F4.1_[A9T]_T4.1] | 361
34 | UCUCUUUGUAGUUCGUCUCUU (ssRNA) [Ic_S1_P4E.1_K4.1_C4.1_H4.1_A4.1_[T5G]_[A6T]_F4.1_[T8C]_[A9G]_T4.1] | > 2300
35 | UCUCUUUGUAGUCGUUCUCUU (ssRNA) [Ic_S1_P4E.1_K4.1_C4.1_H4.1_A4.1_[T5G]_[A6T]_[T7C]_F4.1_[T8G]_[A9T]_T4.1] | 1600
36 | UCUCUUUGUAGUGCUUCUCUU (ssRNA) [Ic_S1_P4E.1_K4.1_C4.1_H4.1_A4.1_[T5G]_[A6T]_[T7G]_F4.1_[T8C]_[A9T]_T4.1] | > 2300
37 | UCUCUUUGUAUAACUCUCUU (ssRNA) [Ib_S1_P3E.1_K3.1_C3.1_H3.1_A3.1_F3.1_[T7A]_[A8C]_T3.1] | 47
38 | UCUCUUUGUAGUAACUCUCUU (ssRNA) [Ic_S1_P4E.1_K4.1_C4.1_H4.1_A4.1_[T5G]_[A6T]_[T7A]_F4.1_[T8A]_[A9C]_T4.1] | > 2300
39 | UCUCUUUGUAGUGCCUCUCUU (ssRNA) [Ic_S1_P4E.1_K4.1_C4.1_H4.1_A4.1_[T5G]_[A6T]_[T7G]_F4.1_[T8C]_[A9C]_T4.1] | > 2300
40 | UCUCUUUGUAGUCACUCUCUU (ssRNA) [Ic_S1_P4E.1_K4.1_C4.1_H4.1_A4.1_[T5G]_[A6T]_[T7C]_F4.1_[T8A]_[A9C]_T4.1] | 1760

Row | Binder | Kd [nM]
41 | UCUCUUUGUAGUACUUCUCUU (ssRNA) [Ic_S1_P4E.1_K4.1_C4.1_H4.1_A4.1_[T5G]_[A6T]_[T7A]_F4.1_[T8C]_[A9T]_T4.1] | 760
42 | UCUCUUUGUAGUCAUUCUCUU (ssRNA) [Ic_S1_P4E.1_K4.1_C4.1_H4.1_A4.1_[T5G]_[A6T]_[T7C]_F4.1_[T8A]_[A9T]_T4.1] | 971
43 | UCUCUUUGUAGUGUCUCUCUU (ssRNA) [Ic_S1_P4E.1_K4.1_C4.1_H4.1_A4.1_[T5G]_[A6T]_[T7G]_F4.1_[A9C]_T4.1] | 1370
44 | UCUCUUUGUAAAUAUCUCUU (ssRNA) [Ic_S1_P3E.1_K3.1_C3.1_H3.1_A3.1_[T5A]_F3.1_T3.1] | 28
45 | UCUCUUUGUAGUUAUUCUCUU (ssRNA) [Ic_S1_P4E.1_K4.1_C4.1_H4.1_A4.1_[T5G]_[A6T]_F4.1_[T8A]_[A9T]_T4.1] | 685
46 | UCUCUUUGUAGUGUAUCUCUU (ssRNA) [Ic_S1_P4E.1_K4.1_C4.1_H4.1_A4.1_[T5G]_[A6T]_[T7G]_F4.1_T4.1] | 52.3
47 | UCUCUUUGUAGUAUCUCUCUU (ssRNA) [Ic_S1_P4E.1_K4.1_C4.1_H4.1_A4.1_[T5G]_[A6T]_[T7A]_F4.1_[A9C]_T4.1] | 590
48 | UCUCUUUGUAGUACAUCUCUU (ssRNA) [Ic_S1_P4E.1_K4.1_C4.1_H4.1_A4.1_[T5G]_[A6T]_[T7A]_F4.1_[T8C]_T4.1] | 1720
49 | UCUCUUUGUAGCUUCUCUCUU (ssRNA) [Ic_S1_P4E.1_K4.1_C4.1_H4.1_A4.1_[T5G]_[A6C]_F4.1_[A9C]_T4.1] | 612
50 | UCUCUUUGUACGGUAUCUCUU (ssRNA) [Ic_S1_P4E.1_K4.1_C4.1_H4.1_A4.1_[T5C]_[A6G]_[T7G]_F4.1_T4.1] | 13.4
51 | UCUCUUUGUAGCAUUUCUCUU (ssRNA) [Ic_S1_P4E.1_K4.1_C4.1_H4.1_A4.1_[T5G]_[A6C]_[T7A]_F4.1_[A9T]_T4.1] | 32.4
52 | UCUCUUUGUACGCGUUCUCUU (ssRNA) [Ic_S1_P4E.1_K4.1_C4.1_H4.1_A4.1_[T5C]_[A6G]_[T7C]_F4.1_[T8G]_[A9T]_T4.1] | 1440
53 | UCUCUUAGUAUACAUCUCUU (ssRNA) [Ib_S1_P3E.1_K3.1_C3.1_H3.1_[T1A]_A3.1_F3.1_[T7C]_T3.1] | > 2300
54 | UCUCUUUGUAGUCUGUCUCUU (ssRNA) [Ic_S1_P4E.1_K4.1_C4.1_H4.1_A4.1_[T5G]_[A6T]_[T7C]_F4.1_[A9G]_T4.1] | 406
55 | UCUCUUUGUAGUGUGUCUCUU (ssRNA) [Ic_S1_P4E.1_K4.1_C4.1_H4.1_A4.1_[T5G]_[A6T]_[T7G]_F4.1_[A9G]_T4.1] | 575
56 | UCUCUUUGUACGCGAUCUCUU (ssRNA) [Ic_S1_P4E.1_K4.1_C4.1_H4.1_A4.1_[T5C]_[A6G]_[T7C]_F4.1_[T8G]_T4.1] | 727
57 | UCUCUUUGUAGUUCAUCUCUU (ssRNA) [Ic_S1_P4E.1_K4.1_C4.1_H4.1_A4.1_[T5G]_[A6T]_F4.1_[T8C]_T4.1] | 1570
58 | UCUCUUUGUAGUCUCUCUCUU (ssRNA) [Ic_S1_P4E.1_K4.1_C4.1_H4.1_A4.1_[T5G]_[A6T]_[T7C]_F4.1_[A9C]_T4.1] | 658
59 | UCUCUUUGUAGUCGGUCUCUU (ssRNA) [Ic_S1_P4E.1_K4.1_C4.1_H4.1_A4.1_[T5G]_[A6T]_[T7C]_F4.1_[T8G]_[A9G]_T4.1] | > 2300
